Source: patent US20070178524A1, “Methods for determining and lowering caffeine concentration in fluids” (Washington University, priority 2004, published 2007)

Tests used:
[1] = Removal of caffeine from decaffeinated coffee by VSA2 column; details: HPLC
Method: (§1) The ability of VSA2 to remove caffeine from solution was assessed. VSA2 still containing the His Tag (prior to thrombin cleavage) was coupled to a NiNTA agarose column via its N-terminus His Tag. Approximately 1 mg of antibody was bound to 1 ml of swollen agarose. One mg of a different unrelated protein which also contained a Histag was bound to a NiNTA agarose column as a control. Five μg of caffeine in 0.5 ml of PBS was passed over the column and then washed with 4 ml of PBS and 0.5 ml fractions collected. The amount of caffeine in the wash solutions was determined by absorbance at 273 nm and converted to amount of caffeine via comparison with the absorbance of standards (0, 2.5, 5, 10 ug).
The ability of VSA2 to remove caffeine from “decaffeinated” coffee was also assessed using brewed decaffeinated coffee (Seattle's Best™). By HPLC analysis, this batch of decaffeinated coffee had 30.8 μg/mL of caffeine. One hundred and sixty seven μL (5.15 μg caffeine) of the decaffeinated coffee was placed on the column and then the column washed as previously described and caffeine measured by HPLC in the 0.5 ml aliquots. 3.9 μg of caffeine was removed from the first decaffeinated coffee aliquot placed on the column and 0.5 μg from the second 167 μl aliquot. The total of 4.4 μg of caffeine removed by the column was very similar to the 4.2 μg removed by the column when caffeine was in a simple solution.

[2] = Removal of caffeine from solution by VSA2 NiNTA agarose column
Method: as §1
The caffeine bound to the column was eluted with 8 M urea, 100 mM sodium phosphate, 10 mM tris, pH 6.3 and 4.1 ug of caffeine came off the column which was in excellent agreement with the 4.2 ug which had originally bound to the column. No caffeine was eluted from the control column.
The ability of the VSA2 column to remove caffeine from solution was confirmed using HPLC (method previously described) to analyze the original caffeine solution put on the column and the fractions from the column washes. […] The HPLC procedure could not be used to measure the caffeine eluted from the column due to the presence of 8 M urea.

[3] = Thermal stability: Standard Caffeine-ELISA after heat pre-incubation; assay type: binding
Method: (§2) After caffeine specific clones had been identified, soluble VHH proteins not linked to phage particles were expressed (Harrison, supra). Binding activity of the VHH proteins was assessed in a Standard Caffeine-ELISA. Microtiter plates were coated with caffeine and blocked as above (Coating and Blocking Steps). The VHH proteins serially diluted in 20 mM Tris. pH 7.2 containing 150 mM NaCl and 0.1% Tween (TBS/BSA/Tween) were added and incubated for 90 min at 37° C. (Primary Antibody Step). Bound VHH fragments were detected by the addition of a 1/1000 dilution in TBS/BSA/Tween of mouse-anti-E Tag antibody (Amersham Bioscience Corporation) for 90 min at 37° C. (Secondary Antibody Step), followed by the addition of a 1/1000 dilution in TBS/BSA/Tween of goat-anti-mouse IgG-alkaline phosphatase conjugate for 90 min at 37° C. (Reporter Antibody Step), before the addition of para-nitrophenyl phosphate substrate (p-npp) (Sigma Aldrich) (Substrate Step). The wells were washed and monitored at A405 as above. The Standard ELISA assay was used to assess thermal stability and reactivity of VSA2 (Example 9, FIGS. 5 and 6).
The thermal stability of VSA2 was determined and compared to that of two mouse anti-caffeine monoclonal antibodies (Catalog No. G45110 M and G45111 M, U.S. Biological, Swampscott, Mass.). Antibody solutions were prepared in TBS containing 0.1% Tween and incubated for 20 min at temperatures ranging from RT to 90° C. The solutions were re-equilibrated to RT before measuring caffeine binding activity. For VSA2, the Standard Caffeine-ELISA protocol was followed. For the commercial mouse monoclonal antibodies, the Secondary Antibody Step was skipped.

[4] = Competition Caffeine-ELISA, cross-reactivity with theophylline; assay type: binding
Method: (§3) Binding of VHH proteins to unconjugated caffeine was also assessed by a competition assay (Competition Caffeine-ELISA) in which 0-800 μg/mL caffeine (Sigma-Aldrich) was added as a competitor along with the VHH during the Primary Antibody Step of the Standard Caffeine-ELISA. All other steps are the same as for the Standard Caffeine ELISA. A405 readings with and without competitor were compared. The competition ELISA was used to assess cross-reactivity of theophylline and theobromine (Example 9, FIG. 4) and also the amount of caffeine in various beverages (Example 9, FIG. 7, Table 3).
(§4) Two additional methylxanthines with similar structure to caffeine, theobromine and theophylline, were tested for cross-reactivity with VSA2. The Competition Caffeine-ELISA described above was run using theobromine and theophylline (Sigma-Aldrich) as competitors at concentrations up to 250 μg/mL and compared to competition by caffeine.
(§5) The results of the competition caffeine-ELISA run with increasing concentrations of caffeine (-▪-), theophylline (. .●. .) or theobromine (- -▴- -) is shown in FIG. 4. The response (B) was compared to that of no competitor (Bo).

[5] = Competition Caffeine-ELISA, competition by caffeine; assay type: binding; details: competitors caffeine, theophylline, theobromine; FIG. 4
Method: as §2, with “The Standard ELISA assay was used to assess thermal stability and reactivity of VSA2 (Example 9, FIGS. 5 and 6).” left out
Binding of VHH proteins to unconjugated caffeine was also assessed by a competition assay (Competition Caffeine-ELISA) in which 0-800 μg/mL caffeine (Sigma-Aldrich) was added as a competitor along with the VHH during the Primary Antibody Step of the Standard Caffeine-ELISA. […] A405 readings with and without competitor were compared. […]

[6] = Competition Caffeine-ELISA, cross-reactivity with theobromine; assay type: binding; details: theobromine at concentrations up to 250 μg/mL
Method: as §3, §4, §5

[7] = Thermal reactivity at 70° C. with caffeine-biotinylated nonapeptide and streptavidin magnetic beads; assay type: binding
Method: as §2
The thermal reactivity of VSA2 was also determined. […] The amount of unbound VSA2 remaining in the supernatant was determined in a Standard Caffeine-ELISA.

B1: VSA2: caffeine-specific llama single-domain heavy-chain (VHH) antibody fragment; SEQ ID NO: 1 with T7 and E tags, SEQ ID NO: 4 core (protein)
VHH: GSHMASMTGGQQMGRGSEFAEVQLQASGGGLVQAGGSLRLSCTASGRTGTIYSMAWFRQAPGKEREFLATVGWSSGITYYMDSVKGRFTISRDNAKNSAYLQMNSLKPEDTAVYYCTATRAYSVGYDYWGQGTQVTVSHAAAGAPVPYPDPLEPR
modifications: T7 and E tags; Camelidae antibody
In the case of B1, the caffeine removed ([1]; first 167 μL decaffeinated coffee aliquot (5.15 μg caffeine)) is reported as 3.9 µg, the caffeine removed ([1]; second 167 μl decaffeinated coffee aliquot) is reported as 0.5 µg and the “total caffeine removed by the column” value ([1]; two decaffeinated coffee aliquots) is reported as 4.4 µg. For the same molecule, the “caffeine bound to the column” value ([2]; HPLC analysis) was 3.8 µg, the “caffeine eluted from the column” value ([2]; eluted with 8 M urea, 100 mM sodium phosphate, 10 mM tris, pH 6.3) was 4.1 µg and the “caffeine bound to the column” value ([2]; first 5 μg caffeine aliquot, UV method) was 3.6 µg. The “caffeine recovered in the washing solutions” value ([2]; five μg caffeine in PBS added, about 1 mg His-tagged VSA2 on 1 ml agarose, absorbance at 273 nm, average of duplicate) was 1.4 µg, the additional bound caffeine ([2]; second 5 ug caffeine aliquot, UV method) was 0.6 µg and the “total caffeine originally bound to the column” value ([2]; two 5 ug aliquots, UV method) was 4.2 µg. For the same molecule, the “effect of heat pre-incubation on caffeine binding” value ([3]; 20 min at temperatures of 60° C. and below, re-equilibrated to RT) was “no effect”, the “activity retained after heat pretreatment” value ([3]; 20 min at temperatures up to 90° C., re-equilibrated to RT) was “greater than 90%” and the “heat stability compared among four representative clones” value ([3]; purified soluble antibodies, 2 llama and 2 camel clones) was “greatest degree of heat stability”. The “amount of theophylline relative to caffeine needed for equivalent competition” value [4] was “approximately fourteen times as much theophylline as caffeine”, the cross-reactivity with theophylline [4] was 7.4% and the competition by theophylline ([4]; theophylline at 250 μg/mL) was “some competition”. For the same molecule, the “specificity for caffeine in competition caffeine-ELISA (B/Bo)” value [5] was “highly specific for caffeine”, the competition by theobromine [6] was “essentially no competition” and the “VHH remaining in solution” value ([7]; 20 μg/mL caffeine-biotinylated-nonapeptide) was 56.8%. For the same molecule, the “VHH remaining in solution” value ([7]; 200 μg/mL caffeine-biotinylated-nonapeptide) was 20.1%.
